The target in test [1] is T1, lysozyme (Sigma) (chicken, UniProt P00698 19-147).
T1 construct: also called lysozime; Lisozyme
The test is described as follows: ELISA on coated lysozyme, E. coli periplasmic extracts normalized for total protein. For orientation: In an ELISA, binding on a coated surface is turned into a signal by an enzyme label.

Test [2] addresses cucumber mosaic virus (CMV), purified (cucumber mosaic virus). In words: SPR (BIAcoreX), purified CMV amine-coupled to a CM5 chip, scFv in flow; kD=koff/kon. On the technique in general: In SPR one partner is held on a chip, and binding of the other changes the refractive index at the surface.
Test [3] has as its target T1, lysozyme (Sigma). In words: column 'Specificity' of Table I; clone selected from the monoscaffold phage library and screened by ELISA.

T1 sequence (P00698 19-147): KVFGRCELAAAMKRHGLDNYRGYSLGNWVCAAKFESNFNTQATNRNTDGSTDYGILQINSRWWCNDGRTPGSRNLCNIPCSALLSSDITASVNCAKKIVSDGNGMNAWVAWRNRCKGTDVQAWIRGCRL

B1: scFv(P5) (scFv)
scFv: QVQLQESGGDLVQPGGSLKLSCAVSGFSLTGYGVNWVRQTPDKRLEWVAMIWGDGNTDYNSSVKGRFTISKDNAKSTVYLQMSSLKSEDTAMYYCARERDYRLDYWGQGTTVTVSSGGGGSGGGGSGGGGSDIELTQSPASLAVSLGQRATISCRASGNIHNYLAWYQQKPGQPPKLLIYYTTTLADGIPARFSGSGSGTDYTLTINPVEADDVATYYCQHFWSTPRTFGGGTKLEIKR
notes: Last product of mutagenesis, with the highest number of substitutions; also called P5 mutant; LYS/P5
On to B1, for which the binding result with lysozyme (Sigma) [1] is “binds”.

B2: scFv(CMV-4G) (scFv)
scFv: QVQLQESGGDLVQPGGSLKLSCAASGFTFSSYGMSWVRQTPDKRLELVATINSNGGSTFYPDSVKGRFTISRDNAKNTLYLQMSSLKSEDTAMYYCARNNWSFDYWGQGTTVTVSSGGGGSGGGGSGGGGSDIELTQSPASLAVSLGQRATISCRASESVHNYMHWYQQKPGQPPKLLIYRALNLESGIPARFSGSGSRTDFTLTINPVEADDVATYYCQQGQRKPWTFGGGTKLEIKR
Usually Kd stands for the concentration at which binding is half-saturated. Low values mean higher affinity, high ones lower affinity. In test [2], B2 displayed a Kd of 60 nM.

B3: scFv(LYS-11E) (scFv)
scFv: QVQLQESGGDLVQPGGSLKLSCAASGFTFSSYGMSWVRQTPDKRLELVATINSNGGSTFYPDSVKGRFTISRDNAKNTLYLQMSSLKSEDTAMYYCARTRPYFDYWGQGTTVTVSSGGGGSGGGGSGGGGSDIELTQSPASLAVSLGQRATISCRASESVHNYMHWYQQKPGQPPKLLIYRALNLESGIPARFSGSGSRTDFTLTINPVEADDVATYYCQQVTYKPWTFGGGTKLEIKR
notes: also called scFv(HEL-11E)
Take B3: in the test with lysozyme (Sigma) [3], the binding result is recorded as “binds”.

B4: scFv(CMV-4B) (scFv)
scFv: QVQLQESGGDLVQPGGSLKLSCAASGFTFSSYGMSWVRQTPDKRLELVATINSNGGSTFYPDSVKGRFTISRDNAKNTLYLQMSSLKSEDTAMYYCARNNYSFDYWGQGTTVTVSSGGGGSGGGGSGGGGSDIELTQSPASLAVSLGQRATISCRASESVHNYMHWYQQKPGQPPKLLIYRALNLESGIPARFSGSGSRTDFTLTINPVEADDVATYYCQQGRRAPWTFGGGTKLEIKR
The molecule B4 returned a Kd in test [2] of 10 nM.
